The source of these data is US20190247432A1 (published 2019).

The assay concerns the target T1, NY-ESO-1 (the LAGE-1S transcript variant shares the same epitope) peptide on HLA-A*02:01 (human).
T1 peptide: SLLMWITQC
The assay can be described thus: multimer staining.

B1: 8F NY-ESO-1 TCR (TCR, V domains shown)
Valpha: EEDPQALSIQEGENATMNCSYKTSINNLQWYRQNSGRGLVHLILIRSNEREKHSGRLRVTLDTSKKSSSLLITASRAADTASYFCATDGAGKSTFGDGTTLTVKP
Vbeta: VIQSPRHEVTEMGQEVTLRCKPISGHDYLFWYRQTMMRGLELLIYFNNNVPIDDSGMPEDRFSAKMPNASFSTLKIQPSEPRDSAVYFCASTIGAQPQHFGDGTRLSIL
Regarding B1, the binding result is reported as “recognises”.
